Laboratory results as given in US20230212319A1, “NOVEL ANTIGEN BINDING DOMAINS AND SYNTHETIC ANTIGEN RECEPTORS INCORPORATING THE SAME” (University of Southern California, priority 2020, published 2023).

B1: 22118 (protein)
chain: MALPVTALLLPLALLLHAARPEVQLVESGGGLVQPGGSLRLSCTFSGGTFSSYTMGWFRQAPGKEREFVAEVRWGGVTTYSNSLKDRFSISEDSVKNAVYLQMNSLKPEDTAVYYCAAVRQMYMTVVPDYWGQGTLVTVSSSGGGGSDIQMTQSPSSLSASVGDRVTITCKASDHINNWLAWYQQKPGKAPKLLIYGATTLETGVPSRFSGSGSGTDFTLTISSLQPEDFATYYCQQSWNTPWTFGQGTKVEIKRLEDLKNVFPPEVAVFEPSEAEISHTQKATLVCLATGFYPDHVELSWWVNGKEVHSGVCTDPQPLKEQPALNDSRYCLSSRLRVSATFWQNPRNHFRCQVQFYGLSENDEWTQDRAKPVTQIVSAEAWGRADCGFTSESYQQGVLSATILYEILLGKATLYAVLVSALVLMAMVKRKDSRGRAKRSGSGATNFSLLKQAGDVEENPGPTSMDWIWRILFLVGAATGAHSFEVQLVESGGGLVQPGGSLRLSCAASGYAFSSYWVNWVRQAPGKGLEWVAQIYPGDGDTNYNGKFKGRFTISRDNSKNTLYLQMNSLRAEDTAVYYCARSITTVVGCAMDYWGQGTLVTVSSTRIQNPDPAVYQLRDSKSSDKSVCLFTDFDSQTNVSQSKDSDVYITDKCVLDMRSMDFKSNSAVAWSNKSDFACANAFNNSIIPEDTFFPSPESSCDVKLVEKSFETDTNLNFQNLSVIGFRILLLKVAGFNLLMTLRLWSSRAKRSGSGVKQTLNFDLLKLAGDVESNPGPSRGHMTEYKPTVRLATRDDVPRAVRTLAAAFADYPATRHTVDPDRHIERVTELQELFLTRVGLDIGKVWVADDGAAVAVWTTPESVEAGAVFAEIGPRMAELSGSRLAAQQQMEGLLAPHRPKEPAWFLATVGVSPDHQGKGLGSAVVLPGVEAAERAGVPAFLETSAPRNLPFYERLGFTVTADVEVPEGPRTWCMTRKPGA
B2: 22093 (protein)
chain: MALPVTALLLPLALLLHAARPEVQLVESGGGLVQPGGSLRLSCAASGFNIKDTCIGWVRRAPGKEEELVAKICKYSGHTRYADSVKGRFTISADTSKNTAYLQMNSLRAEDTAVYYCAAVSVRDGHYNYWGQGTTVTVSSLEGKPIPNPLLGLDSTGSGEDLKNVFPPEVAVFEPSKAEIAHTQKATLVCLATGFYPDHVELSWWVNGKEVHSGVCTDPQPLKEQPALNDSRYCLSSRLRVSATFWQNPRNHFRCQVQFYGLSENDEWTQDRAKPVTQIVSAEAWGRADCGITSASYHQGVLSATILYEILLGKATLYAVLVSALVLMAMVKRKDSRGRAKRSGSGATNFSLLKQAGDVEENPGPTSTMALPVTALLLPLALLLHAARPDIQMTQSPSSLSASVGDRVTITCKASDHINNWLAWYQQKPGQAPKLLIYGATTLETGVPSRFSGSGSGTDYTLTISSLQPEDFATYYCQQSWNTPWTFGQGTKLEIKRGGGGSGGGGSGGGGSQVQLQQPGAELVKPGASVKMSCKASGYAFSSYWINWMKQKPGQGLEWIGQIYPGDGDTNYNGKFKGRATLTADTSSSTAYMQLSSLTSEDSAVYFCARSITTVVGCAMDYWGQGTSVTVSSTREQKLISEEDGSGIQNPDPAVYQLRDSKSSDKSVCLFTDFDSQTNVSQSKDSDVYITDKCVLDMRSMDFKSNSAVAWSNKSDFACANAFNNSIIPEDTFFPSSDVPCDVKLVEKSFETDTNLNFQNLSVIGFRILLLKVAGFNLLMTLRLWSSRAKRSGSGVKQTLNFDLLKLAGDVESNPGPSRGHMTEYKPTVRLATRDDVPRAVRTLAAAFADYPATRHTVDPDRHIERVTELQELFLTRVGLDIGKVWVADDGAAVAVWTTPESVEAGAVFAEIGPRMAELSGSRLAAQQQMEGLLAPHRPKEPAWFLATVGVSPDHQGKGLGSAVVLPGVEAAERAGVPAFLETSAPRNLPFYERLGFTVTADVEVPEGPRTWCMTRKPGA
B3: 22005 (protein)
chain: MALPVTALLLPLALLLHAARPLEGKPIPNPLLGLDSTGSGEDLKNVFPPEVAVFEPSKAEIAHTQKATLVCLATGFYPDHVELSWWVNGKEVHSGVCTDPQPLKEQPALNDSRYCLSSRLRVSATFWQNPRNHFRCQVQFYGLSENDEWTQDRAKPVTQIVSAEAWGRADCGITSASYHQGVLSATILYEILLGKATLYAVLVSALVLMAMVKRKDSRGRAKRSGSGATNFSLLKQAGDVEENPGPTSTMALPVTALLLPLALLLHAARPEVQLVESGGGLVQPGGSLRLSCAASGFNIKDTCIGWVRRAPGKEEELVAKICKYSGHTRYADSVKGRFTISADTSKNTAYLQMNSLRAEDTAVYYCAAVSVRDGHYNYWGQGTTVTVSSTREQKLISEEDGSGIQNPDPAVYQLRDSKSSDKSVCLFTDFDSQTNVSQSKDSDVYITDKCVLDMRSMDFKSNSAVAWSNKSDFACANAFNNSIIPEDTFFPSSDVPCDVKLVEKSFETDTNLNFQNLSVIGFRILLLKVAGFNLLMTLRLWSSRAKRSGSGVKQTLNFDLLKLAGDVESNPGPSRGHMTEYKPTVRLATRDDVPRAVRTLAAAFADYPATRHTVDPDRHIERVTELQELFLTRVGLDIGKVWVADDGAAVAVWTTPESVEAGAVFAEIGPRMAELSGSRLAAQQQMEGLLAPHRPKEPAWFLATVGVSPDHQGKGLGSAVVLPGVEAAERAGVPAFLETSAPRNLPFYERLGFTVTADVEVPEGPRTWCMTRKPGA
B4: 22007 (protein)
chain: MALPVTALLLPLALLLHAARPQLQLQESGPGLVKPSETLSLTCTVSGDSISSGDYYWGWIRQPPGKGLEWIGHIYYSGVTYYNPSLKSRVTISVDTSRNQFSLKLSSVTAADTAVYYCTREDSSNWRSRGQGTLVTVSSLEDLKNVFPPEVAVFEPSEAEISHTQKATLVCLATGFYPDHVELSWWVNGKEVHSGVCTDPQPLKEQPALNDSRYCLSSRLRVSATFWQNPRNHFRCQVQFYGLSENDEWTQDRAKPVTQIVSAEAWGRADCGFTSESYQQGVLSATILYEILLGKATLYAVLVSALVLMAMVKRKDSRGRAKRSGSGATNFSLLKQAGDVEENPGPTSMDWIWRILFLVGAATGAHSFEVQLVESGGGLVQPGGSLRLSCAASGFNIKDTCIGWVRRAPGKEEELVADICPYKGSTRYADSVKGRFTISADTSKNTAYLQMNSLRAEDTAVYYCAIVSARDGYYNYWGQGTTVTVSSTRIQNPDPAVYQLRDSKSSDKSVCLFTDFDSQTNVSQSKDSDVYITDKCVLDMRSMDFKSNSAVAWSNKSDFACANAFNNSIIPEDTFFPSPESSCDVKLVEKSFETDTNLNFQNLSVIGFRILLLKVAGFNLLMTLRLWSSRAKRSGSGVKQTLNFDLLKLAGDVESNPGPSRGHMTEYKPTVRLATRDDVPRAVRTLAAAFADYPATRHTVDPDRHIERVTELQELFLTRVGLDIGKVWVADDGAAVAVWTTPESVEAGAVFAEIGPRMAELSGSRLAAQQQMEGLLAPHRPKEPAWFLATVGVSPDHQGKGLGSAVVLPGVEAAERAGVPAFLETSAPRNLPFYERLGFTVTADVEVPEGPRTWCMTRKPGA

Tests used:
Type in all cases: cell-based
RAJI cells = test: JNG assay, co-culture with RAJI cells; settings: JNG cells expressing construct, co-culture with Raji
How it was run: (§1)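 Jurkat NFAT-GFP (JNG) cells stably transduced with SARs by lentivirus, with drug selection where the construct carried a resistance gene, then co-cultured with target cells at E:T ~1:2 for ~4–18 h. % GFP-positive cells measured by FACS against parental JNG; +/- to 5+ correspond to ~5–50% GFP-positive.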

RS;411 = test: JNG assay, co-culture with RS;411 cells; settings: co-culture with RS411
How it was run: as §1

RAJI-CD19-KO cells = test: JNG assay, co-culture with RAJI-CD19-KO cells; settings: co-culture with Raji-CD19-KO
How it was run: as §1

DAUDI = test: JNG assay, co-culture with DAUDI cells
Description: Cellular supernatant is collected and assayed for the induction of cytokines (e.g., IL2).
JNG (Jurkat cells expressing EGFP under an NFAT promoter) were infected with lentiviral vectors encoding different single chain and multi-chain SARs by spinfection in the presence of 8 µg/ml of Polybrene® (Sigma, Catalog no. H9268). The Jurkat-NFAT-GFP cells are engineered in such a way that the IL-2 promoter, which carries NFAT binding sites, is cloned upstream of the GFP gene. These cells have been used to study signaling via TCR and CAR. The different SARs were stably expressed in Jurkat NFAT-GFP cells by lentiviral mediated gene transfer, followed by selection with puromycin or blasticidin. No drug selection was used in case the construct lacked an antibiotic resistance gene. The SAR-expressing Jurkat-NFAT-GFP cells were cocultured with the target cells at E:T ratio of approximately 1:2 for approximately 4 hours to 18 hours. When the interaction between SIRs and their target antigen results in activation of the NFAT pathway, GFP expression is induced. […] GFP expression was monitored by FACS analysis. The Jurkat-NFAT-GFP (parental) cells were used as control. The structure of different constructs can be determined based on their names. […] The sequence of the other constructs in the table can be similarly determined from their names and by referring to the different Tables of this disclosure that provide the names and SEQ ID NO of the different modules. Alternatively, the composition and modular architecture of the different SAR constructs can be determined from their sequences by bioinformatics tools, including using nucleic acid and amino acids homology searches. A SAR is considered positive in the assay in case the SAR expressing Jurkat-NFAT-GFP cells show greater % GFP positive cells when cultured with the target cell line as compared to parental Jurkat-NFAT-GFP cells. […] In general, the number +/-, +, 2+, 3+, 4+, 5+ refer to approximately 5%, 10%, 20%, 30%, 40% and 50% GFP positive cells. […]

Nalm6 cells = test: JNG assay, co-culture with Nalm6 cells; settings: co-culture with Nalm6
How it was run: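 Read-out is % GFP-positive cells by flow cytometry after ~4–18 h co-culture (E:T ≈1:2) of target lines with SAR-transduced, puromycin/blasticidin-selected JNG cells. Grades +/-, +, 2+…5+ correspond to approximately 5%, 10%, 20%, 30%, 40%, 50% GFP+ over parental JNG controls.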

LoVo = test: JNG NFAT-GFP assay, co-culture with LoVo cells

Row | Molecule | NFAT-GFP ASSAY: Raji (RAJI cells) | NFAT-GFP ASSAY: RS411 (RS;411) | NFAT-GFP ASSAY: Raji-CD19-KO (RAJI-CD19-KO cells) | NFAT-GFP ASSAY: Daudi (DAUDI) | NFAT-GFP ASSAY: Nalm6 (Nalm6 cells) | NFAT-GFP ASSAY: LoVo (LoVo)
1 | B1 | 3+ (refer to approximately 5%, 10%, 20%, 30%, 40% and 50% GFP positive cells) | 3+ (refer to approximately 5%, 10%, 20%, 30%, 40% and 50% GFP positive cells) | 2+ (refer to approximately 5%, 10%, 20%, 30%, 40% and 50% GFP positive cells) | 3+ (refer to approximately 5%, 10%, 20%, 30%, 40% and 50% GFP positive cells) | 3+ (refer to approximately 5%, 10%, 20%, 30%, 40% and 50% GFP positive cells) | –
2 | B2 | 2+ (refer to approximately 5%, 10%, 20%, 30%, 40% and 50% GFP positive cells) | – | – | – | + (refer to approximately 5%, 10%, 20%, 30%, 40% and 50% GFP positive cells) | +/- (refer to approximately 5%, 10%, 20%, 30%, 40% and 50% GFP positive cells)
3 | B3 | – | – | – | – | – | +/- (refer to approximately 5%, 10%, 20%, 30%, 40% and 50% GFP positive cells)
4 | B4 | +/- (refer to approximately 5%, 10%, 20%, 30%, 40% and 50% GFP positive cells) | – | – | – | – | +/- (refer to approximately 5%, 10%, 20%, 30%, 40% and 50% GFP positive cells)
